From the DeepSol protein solubility set

Test: soluble on expression in E. coli; label from the status in PepcDB or PDB records

Sequence | soluble on expression in E. coli
MPRRALGWTAEVLKRLHGINYPITKDTLREKLAGMSIRGVPVERVIDEIEVDKFDTPRDVLHYIAEAVHKLEERGEIPTETRKGIRWAAEVLKRIHGEHFPMDKQKLKEKLAGLYWRGVPIEKVIDAMEVEQVESPADLLHQLSIAIKKLEEQGEVA | not soluble
MPRRPGTPRGPQGGRRLLVISASMGAGHDTVAAELVRRARERGDTAQTVDVLALLPYGLGAVLRCFYRGSVRHFPWAYAALYRLFLRPGAGRRPSGTPLARLAGDRLRELAARTGADVVVPVFHLGAQLTGHLRDRGLLPVPSVVLVIDFELHRQWLHPGNDHCLCLTEEAAREARGNTGTPAETCGPVVAPEFSAGRVPGAAQWRETFDRLGPGRPAVVLSAGAWGVGSHLDATVRLLVDHGYLPVVLCGDNQRLRRTLSGTPGVLALGWVTDMPGLLHAARALIDNAAGQTAVQALAAGLPVVGHRPIPGHGADGVRRMAALGVSEVAEDRTALLEALARLTAPGPDRRRRIAAGRALFTGNADALTLVTDLADAARADVRRLEHHHHHH | not soluble
MPRYIVRPFHLLNLPTVVISEVLNHLKNIDICILRTTSRKIRTIGKLSARRKQTYLVGHRRLDLTINARFGKFKVESGARDGTVALYAGYDINRVLDITSDFFDYLDIYIYLYIIDNHSDKDAKKLVEVIVTKGIYVHYLRFDGEQISHELFREMLKCDVNELRIHLRTQHTVELSDIDLMVSCKCVALTRITIPSDYLNVLLKKWQANRNLTFFSASGMALTLDKSIILEGTNSEQGSEEYNFYIKCNNRKTALLKILHNSFRLGNVY | not soluble
MPRYTESEWLTDFIIDALDSGRFWGVGWLDEQKRIFTVPGRNRRERMPEGFDDFYEAFLEERRRHGLPEIPETETGLGCFGRLLRTANRARQERPFTIYKGKMKLNRWIMTPRPYKGCEGCLVYLTQEPAMKNMLKALFGIYPHDDKHREKALRRSLRKKAQRREAARKQAAAVATPTTSSAAEVSSRSQSEDTESSDSENELWVGAQGFVGRDMHSLFFEEPEPSGFGSSGQSSSLLAPDSPRPSTSQVQGPLHVHTPTDLCLPTGGLPSPVIFPHETQGLLAPPAGQSQTPFSPEGPVPSHVSGLDDCLPMVDHIEGCLLDLLSDVGQELPDLGDLGELLCETASPQGPMQSEGGEEGSTESVSVLPATHPLESSAPGASVMGSGQELPDLGDLSELLCETASPQGPMQSEGGEEGSTESVSVLPATHPLESSAPGASVMGSSFQASDNVDDFIDCIPPLCRDDRDVEDQEKADQTFYWYGSDMRPKVLTATQSVAAYLSKKQAIYKVGDKLVPLVVEVYYFGEKVKTHFDLTGGIVICSQVPEASPEHICQTVPPYKCLLPRTAHCSVDANRTLEQTLDRFSMGVVAIGTNMGIFLKGLLEYPAYFVGNASRRRIGKCRPLSHRHEIQQAFDVERHNREPEGSRYASLFLGRRPSPEYDSDHYPVILHIYLAPFYHRD | not soluble
MPSGAEFTRDERQLNQHENPNDAMSDDNSHSSDTVNSKKGFFSLLLSQLFHGEPKNRDELLALIRDSGQNDLIDEDTRDMLEGVMDIADQRVRDIMIPRSQMITLKRNQTLDECLDVIIESAHSRFPVISEDKDHIEGILMAKDLLPFMRSDAEAFSMEKVLRPAVVVPESKRVDRMLKEFRSQRYHMAIVIDEFGGVSGLVTIEDILELIVGEIEDEYDEEEDIDFRQLSRHTWTVRALASIEDFNDAFDTHFSDEEVDTIGGLVMQAFGHLPARGESIDIDGYQFKVAMADSRRIIQVHVKLPDDAPQPKLEE | not soluble
MPSIRLADLAQQLDAELHGDGDIVITGVASMQSAQTGHITFMVNPKYREHLGLCQASAVVMTQDDLPFAKSAALVVKNPYLTYARMAQILDTTPQPAQNIAPSAVIDATAKLGNNVSIGANAVIESGVELGDNVIIGAGCFVGKNSKIGAGSRLWANVTIYHEIQIGQNCLIQSGTVVGADGFGYANDRGNWVKIPQIGRVIIGDRVEIGACTTIDRGALDDTVIGNGVIIDNQCQIAHNVVIGDNTAVAGGVIMAGSLKIGRYCMIGGASVINGHMEICDKVTVTGMGMVMRPITEPGVYSSGIPLQPNKVWRKTAALVMNIDDMSKRLKSLERKVNQQD | not soluble
MPSIRVVNLKKYFGKVKAVDGVSFEVKDGEFVALLGPSGCGKTTTLLMLAGIYKPTSGEIYFDDVLVNDIPPKYREVGMVFQNYALYPHMTVFENIAFPLRARRISKDEVEKRVVEIARKLLIDNLLDRKPTQLSGGQQQRVALARALVKQPKVLLFDEPLSNLDANLRMIMRAEIKHLQQELGITSVYVTHDQAEAMTMASRIAVFNQGKLVQYGTPDEVYDSPKNMFVASFIGNPPTNFLRDFSVSVENKQTILKRDDVIIKLPEPVDVKLKEVVVGIRPEHCRISRERVENSIPGVVYVVEPLGRDIIVNVKTEKGEIIKVFGDTGKAPQPGENVFLVPDLRKIHLFNPETEETIL | soluble
MPSSKTSARRAPSSPGASLWSLPLIRKLCCAPGCEELAPAGQAHCADHAAEAEARARSRKARAKAGAAAQAGAAFYATGRWRRARARFLAAHPLCADCAGLGLVVAAAEVDHIRPHRGDPGLMWDRANWQPLCRPCHSRKTAREVFHPPGGIAKSEGSARLEHHHHHH | not soluble
MPSYKLTYFFFRGLGEPIRLLFHLAGVQFEEVRMNPDQTWLDIKDSTPMKQLPVLNIDGFELPQSGAILRYLARKFGFAGKTPEEEAWVDAVHDLFKDFLAEFKKFAAERRSGKSAEEVEKFRSEFFLPARNTYFNILNGLLEKSNSGFLIGSDITFADLVVVDNLLTLKNYGLFDESEFTKLAALREKVNSYPGIKEYIAKRPVTEY | soluble
MPSYTVTVATGSQWFAGTDDYIYLSLVGSAGCSEKHLLDKPFYNDFERGAVDSYDVTVDEELGEIQLVRIEKRKYWLNDDWYLKYITLKTPHGDYIEFPCYRWITGDVEVVLRDGRAKLARDDQIHILKQHRLKELETRQKQYRWMEWNPGFPLSIDAKCHKDLPRDIQFDSEKGVDFVLNYSKAMENLFINRFMHMFQSSWNDFADFEKIFVKISNTISERVMNHWQEDLMFGYQFLNGCNPVLIRRCTELPEKLPVTTEMVECSLERQLSLEQEVQQGNIFIVDFELLDGIDANKTDPCTLQFLAAPICLLYKNLANKIVPIAIQLNQIPGDENPIFLPSDAKYDWLLAKIWVRSSDFHVHQTITHLLRTHLVSEVFGIAMYRQLPAVHPIFKLLVAHVRFTIAINTKAREQLICECGLFDKANATGGGGHVQMVQRAMKDLTYASLCFPEAIKARGMESKEDIPYYFYRDDGLLVWEAIRTFTAEVVDIYYEGDQVVEEDPELQDFVNDVYVYGMRGRKSSGFPKSVKSREQLSEYLTVVIFTASAQHAAVNFGQYDWCSWIPNAPPTMRAPPPTAKGVVTIEQIVDTLPDRGRSCWHLGAVWALSQFQENELFLGMYPEEHFIEKPVKEAMARFRKNLEAIVSVIAERNKKKQLPYYYLSPDRIPNSVAI | soluble
MPTVSVKRDLLFQALGRTYTDEEFDELCFEFGLELDEITSEKEIISKEQGNVKAAGASDVVLYKIDVPANRYDLLCLEGLVRGLQVFKERIKAPVYKRVMPDGKIQKLIITEETAKIRPFAVAAVLRNIKFTKDRYDSFIELQEKLHQNICRKRALVAIGTHDLDTLSGPFTYTAKRPSDIKFKPLNKTKEYTACELMNIYKTDNHLKHYLHIIENKPLYPVIYDSNGVVLSMPPIINGDHSRITVNTRNIFIECTGTDFTKAKIVLDIIVTMFSEYCENQFTVEAAEVVFPNGKSHTFPELAYRKEMVRADLINKKVGIRETPENLAKLLTRMYLKSEVIGDGNQIEIEIPPTRADIIHACDIVEDAAIAYGYNNIQMTLPKTYTIANQFPLNKLTELLRHDMAAAGFTEALTFALCSQEDIADKLGVDISATKAVHISNPKTAEFQVARTTLLPGLLKTIAANRKMPLPLKLFEISDIVIKDSNTDVGAKNYRHLCAVYYNKNPGFEIIHGLLDRIMQLLDVPPGEDKGGYVIKASEGPAFFPGRCAEIFARGQSVGKLGVLHPDVITKFELTMPCSSLEINIGPFL | soluble
MPTYKLTYFNARGYAEAARILFHLADVPFEDFRMTHGDGTWEKLKDGAPFGQVPYLTVDGFDIPQSAAIIRYLANKFGYAGKTPEEQVWADAIVDQFKDFMGSFRERIMAHFAGKSQEEIAKITSEVVIPARDSYFKILNGLLEKSKSGFLVGDSITFADIVISENITTLEKNQLFVASEQPNLAALREKVYAIPAIRKWVEARPDTQY | not soluble
MPVDLSKWSGPLSLQEVDEQPQHPLHVTYAGAAVDELGKVLTPTQVKNRPTSISWDGLDSGKLYTLVLTDPDAPSRKDPKYREWHHFLVVNMKGNDISSGTVLSDYVGSGPPKGTGLHRYVWLVYEQDRPLKCDEPILSNRSGDHRGKFKVASFRKKYELRAPVAGTCYQAEWDDYVPKLYEQLSGK | soluble
MPVETREISVTAKEDCGIVDITGIVSEEVEKSEIKNGTVTVFCVGSTGAISTMEFESNLSKDISEILDKLIPLNEDYHHHKTWGDFNGGSHLRSFLLGPSLTVPFVEKKLTLGTWQQIVYINFDRIEKVRKIVLQIIGDLLEHHHHHH | soluble
MPVINVKDDEDFRNQLSLAGLKSVIVDFTAVWCGPCKMIAPTFEALSNQYLGAVFLKVDVEICEKTSSENGVNSMPTFMVFQSGVRVEQMKGADAKALETMVKKYADNSAADSLVAGQMDLTPLVDKKQMECLNESDDTPLGRFLEGNCNLVSDCDEQLIISLPFNQPVKVHSILIKGVSDRAPKKVKVFINLPKTTDFDNATALEPTQMLEFDESSIQGHGQVVALKYVKFQNVQNIQFFIENNVGGGDVTELVKLTVFGTPLSALNMNEFKRVAGKAGDAAH | not soluble
MPYIEKLELKGFKSYGNKKVVIPFSKGFTAIVGANGSGKSNIGDAILFVLGGLSAKAMRASRISDLIFAGSKNEPPAKYAEVAIYFNNEDRGFPIDEDEVVIRRRVYPDGRSSYWLNGRRATRSEILDILTAAMISPDGYNIVLQGDITKFIKMSPLERRLLIDDISGIAEYDSKKEKALEE | soluble
MQAGKPILYSYFRSSCSWRVRIALALKGIDYKTVPINLIKDGGQQFSKDFQALNPMKQVPTLKIDGITIHQSLAIIEYLEETRPTPRLLPQDPKKRASVRMISDLIAGGIQPLQNLSVLKQVGEEMQLTWAQNAITCGFNALEQILQSTAGIYCVGDEVTMADLCLVPQVANAERFKVDLTPYPTISSINKRLLVLEAFQVSHPCRQPDTPTELRA | soluble
MQAGPALMSEVASRELRNDTAGVLRRVRAGEDVTITVSGRPVAVLTPVRPRRRRWLSKTEFLSRLRGAQADPGLRNDLAVLAGDTTEDLGPIR | soluble
MQAVSVDETKNTVVLRAEHKNEEGRKSVDKFEVKTRNPETIKSVERKLMEKGVQRMDRHPSDGIPLRRPPSKSGHGGKYTWEGPDRMEDYEMQPDPPAMDEGDPNYDEEQVKKSGDDVAVELVKGEVEVAKEAPAGVARVEVDPRLVGR | soluble
MQAYFDQLDRVRYEGPQSTNPLAFRHYNPDELVLGKRMEDHLRFAACYWHTFCWNGADMFGVGAFNRPWQQPGEALELAKRKADVAFEFFHKLNVPFYCFHDVDVSPEGASLKEYKNNFAQMVDVLAAKQEQSGVKLLWGTANCFTNPRYGAGAATNPDPEVFSWAATQVVTAMNATHKLGGENYVLWGGREGYETLLNTDLRQEREQIGRFMQMVVEHKHKMGFQGTLLIEPKPQEPTKHQYDYDVATVYGFLKQFGLEKEIKVNIEANHATLAGHSFHHEIATAIALGIFGSVDANRGDAQLGWDTDQFPISVEENALVMYEILKAGGFTTGGLNFDAKVRRQSTDKYDLFYGHIGAMDTMALSLKIAARMVEDGELDKRVAKRYAGWNGELGQQILKGQLSLGELAQYAEQHNLAPVHQSGHQELLENLVNRYLFDK | not soluble
MQDSVLGVMQPDGFQDIVAARFREARAGGLISTVFQIEIDDHTSLVERHGQRAAEVISTTSADRIAAVLRDRDAVTHLDTFKYAVCLEPVRQMDLELCIQLAGRIQAALEEPIALDATAVCITSSVGFCQQTKVLSRSGEAWLAAAGHALREAHLNGPGAIRAYSLEHHHHHH | not soluble
